Test results reported in PMC4301919, “Helical Defects in MicroRNA Influence Protein Binding by TAR RNA Binding Protein”.
Where a chain is given by its changes, count along the chain named.

Experiments:
TRBP-ΔC-RBD1-Null [1] = biological target: T1, TRBP-ΔC-RBD1-Null (UniProt Q15633-2 9-215, K23A;K59A;K60A); assay: EMSA; apparent Kd; nH 3.0; 50 mM sodium cacodylate pH 7.0, 50 mM potassium glutamate, 5% glycerol; EMSA 0.5 pM RNA, 30 min at room temperature, gel 0.25X TBE at 10 C; CD at 10 C with 5-15 uM RNA; settings: protein: recombinant; label: 5'-32P top strand (EMSA); blunt
T1 sequence: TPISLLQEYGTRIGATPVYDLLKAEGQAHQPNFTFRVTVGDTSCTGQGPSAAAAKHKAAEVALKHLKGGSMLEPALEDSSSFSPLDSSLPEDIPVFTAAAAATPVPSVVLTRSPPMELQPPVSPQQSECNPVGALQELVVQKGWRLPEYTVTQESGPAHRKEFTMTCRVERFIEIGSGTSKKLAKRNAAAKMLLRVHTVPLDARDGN

TRBP-ΔC-RBD2-Null [2] = biological target: T2, TRBP-ΔC-RBD2-Null (UniProt Q15633-2 9-215, K150A;K189A;K190A); assay: EMSA; apparent Kd; nH 3.4; 50 mM sodium cacodylate pH 7.0, 50 mM potassium glutamate, 5% glycerol; EMSA 0.5 pM RNA, 30 min at room temperature, gel 0.25X TBE at 10 C; CD at 10 C with 5-15 uM RNA; settings: protein: recombinant; label: 5'-32P top strand (EMSA); blunt
T2 sequence: T1 sequence with A15K, A51K, A52K, K142A, K181A, K182A

TRBP-ΔC-RBD1-Null [3] = biological target: T1, TRBP-ΔC-RBD1-Null; assay: EMSA; apparent Kd; nH 3.1; 50 mM sodium cacodylate pH 7.0, 50 mM potassium glutamate, 5% glycerol; EMSA 0.5 pM RNA, 30 min at room temperature, gel 0.25X TBE at 10 C; CD at 10 C with 5-15 uM RNA; settings: protein: recombinant; label: 5'-32P top strand (EMSA); blunt
TRBP-ΔC-RBD2-Null [4] = biological target: T2, TRBP-ΔC-RBD2-Null; assay: EMSA; apparent Kd; nH 3.2; 50 mM sodium cacodylate pH 7.0, 50 mM potassium glutamate, 5% glycerol; EMSA 0.5 pM RNA, 30 min at room temperature, gel 0.25X TBE at 10 C; CD at 10 C with 5-15 uM RNA; settings: protein: recombinant; label: 5'-32P top strand (EMSA); blunt
TRBP-ΔC-RBD2-Null [5] = biological target: T2, TRBP-ΔC-RBD2-Null; assay: EMSA; apparent Kd; nH 2.0; 50 mM sodium cacodylate pH 7.0, 50 mM potassium glutamate, 5% glycerol; EMSA 0.5 pM RNA, 30 min at room temperature, gel 0.25X TBE at 10 C; CD at 10 C with 5-15 uM RNA; settings: protein: recombinant; label: 5'-32P top strand; imperfect duplex with U-bulge and A-A mismatch

B1: ds33 (dsRNA)
RNA 1: GGUCAGCAGUGCCUUAGCAGCACGUAAAUAUGG
RNA 2: CCAUAUUUACGUGCUGCUAAGGCACUGCUGACC
Q: B1 was tested. Which Kd (TRBP-ΔC-RBD1-Null [1]) did it give?
A: 1220 ± 70 nM

Q: What about the Kd (TRBP-ΔC-RBD2-Null [2]) of the same binder?
A: 440 ± 50 nM

B2: ds22 (dsRNA)
RNA 1: GUCAGCAGUGCCUUAGCAGCAC
RNA 2: GUGCUGCUAAGGCACUGCUGAC
Q: With B2 as the binder, how does the Kd (TRBP-ΔC-RBD1-Null [3]) read?
A: 2290 ± 80 nM

Q: What about the Kd (TRBP-ΔC-RBD2-Null [4]) of the same binder?
A: 340 ± 10 nM

B3: miR-16-1/miR-16-1* (dsRNA)
RNA 1: UAGCAGCACGUAAAUAUUGGCG
RNA 2: CCAGUAUUAACUGUGCUGCUGAA
Q: With B3 as the binder, how does the Kd (TRBP-ΔC-RBD2-Null [5]) read?
A: 900 ± 100 nM
